Bounds are passed on as bounds.

The experiment has as its target human placental alkaline phosphatase (hPLAP) (human) (UniProt P05187). The experiment is described as follows: ELISA plate with bound antigen, washed with copious amounts of 50 mM DEA.
For H17-BSRNase, the percent washed off with 50 mM DEA was found to be 40%.

In the case of H17-BSRNaseKDEL, the percent washed off with 50 mM DEA was 40%.

Substance H17-Link-BSRNaseKDEL had a percent washed off with 50 mM DEA of 40%.

The substance single-chain H17E2 antibody (scFv) displayed a percent washed off with 50 mM DEA of more than 90%.

For the origin of these results see patent US5973116.
